Data reported in article doi:10.1101/2022.05.18.492403 (bioRxiv, 2022).

B1: truncated C-terminal StrepII-tagged ScSbtB protein (SbtB-Δ104) (domain or fragment, Synechocystis sp. PCC 6803, UniProt P73954 1-104, looked up)
chain: MAKPANKLVIVTEKILLKKIAKIIDESGAKGYTVMNTGGKGSRNVRSSGQPNTSDIEANIKFEILTETREMAEEIADRVAVKYFNDYAGIIYICSAEVLYGHTF
B2: C-terminal StrepII-tagged ScSbtB C105A+C110A variant (natural protein, Synechocystis sp. PCC 6803)
chain: MAKPANKLVIVTEKILLKKIAKIIDESGAKGYTVMNTGGKGSRNVRSSGQPNTSDIEANIKFEILTETREMAEEIADRVAVKYFNDYAGIIYICSAEVLYGHTFAGPEGA

Target: the molecule itself
Assay: crystal structure

| Protein | stoichiometry N |
| --- | --- |
| B1 | 3 |
| B2 | 3 |
